{"source": "patent US20220298237A1", "about": "(KEIO UNIVERSITY, published 2022)", "key": {"[1]": {"target": "T1, mouse aquaporin 3 (AQP3) on cells (mouse, UniProt Q8R2N1 1-292)", "T1 construct": "whole, on cells; Water channel membrane protein; also called mouse AQP3; AQP3 on PAM212 cells", "T1 sequence (looked up)": "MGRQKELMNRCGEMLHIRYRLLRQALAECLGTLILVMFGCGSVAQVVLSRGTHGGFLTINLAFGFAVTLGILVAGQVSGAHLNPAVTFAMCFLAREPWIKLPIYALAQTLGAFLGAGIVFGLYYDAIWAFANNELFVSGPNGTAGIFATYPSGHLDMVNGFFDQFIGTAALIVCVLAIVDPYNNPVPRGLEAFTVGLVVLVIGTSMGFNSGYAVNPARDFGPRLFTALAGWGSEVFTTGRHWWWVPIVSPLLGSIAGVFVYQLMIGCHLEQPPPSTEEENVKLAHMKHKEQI", "test": "fluorescence binding assay on PAM212 cells, 10 µg/mL", "procedure": "(§1) PAM212 cells were reacted with each anti AQP3 antibody at concentrations of none, 1 ng/mL, 10 ng/mL, 100 ng/mL, 1 μg/mL, or 10 μg/mL at 4° C. for 1 hour. After washing the cells, a fluorescent-labeled secondary antibody was added and the reaction was allowed to occur additionally for 1 hour (at 4° C.). By measuring the fluorescence intensity, the binding property of each anti AQP3 antibody to cells was obtained."}, "[2]": {"target": "T2, oligopeptide SRGTHGGFL (SEQ ID NO: 2)", "T2 construct": "Synthetic peptide of AQP3 Loop A; also called Loop A peptide; control peptide", "T2 peptide": "SRGTHGGFL", "test": "ELISA on peptide SEQ ID NO:2 (FIG. 16B)"}, "[3]": {"target": "T3, oligopeptide ATYPSGHLDM (SEQ ID NO: 1) (human and mouse)", "T3 construct": "Synthetic peptide; positions 148 to 157 of the human AQP3 polypeptide, identical in mouse; also called peptide used for immunization; oligopeptide 5", "T3 peptide": "ATYPSGHLDM", "test": "ELISA on peptide SEQ ID NO:1, IgG, 50% binding response (FIG. 16A)"}, "[4]": {"target": "T1, mouse aquaporin 3 (AQP3) on cells", "test": "fluorescence binding assay on PAM212 cells with AQP3 siRNA (10% of AQP3 expression) against control siRNA, 1 µg/mL (FIG. 19)", "procedure": "The resulting siRNA AQP3 cell line had 10% of the AQP3 expression compared to the control siRNA cell line. The siRNA AQP3 and control siRNA PAM212 cells were reacted with SC—F8, BC—H9, BC—B10, and SC—B6 at the chosen concentration 1 μg/mL at 4° C. for 1 hour. After washing the cells, a fluorescent-labeled secondary antibody was added and the reaction was allowed to occur additionally for 1 hour (at 4° C.). By measuring the fluorescence intensity, the binding property of each anti AQP3 antibody to the two cell lines was obtained.\nThe result of the above experiment is shown in FIG. 19, wherein the vertical axis represents fluorescence intensity, and the mean fluorescence intensity of each sample is represented by bar height together with standard error."}, "[5]": {"target": "T4, oligopeptide GIFATYPSGHLDM (SEQ ID NO: 107)", "T4 construct": "Synthetic peptide, part of Loop C of AQP3", "T4 peptide": "GIFATYPSGHLDM", "test": "ELISA on coated peptide", "procedure": "(§2) To determine the important amino acid residues of an epitope in Loop C involved in binding to specific AQP3 antibody clones, peptides of varying lengths were produced. The sequences of these peptides are shown in column 2 of Table 4.\n(§3) The various peptides and AQP3 antibody clones were subjected to ELISA binding analyses. […] The microtiter wells (Costar 2690) were coated with 50 μL of each peptide at 4° C. overnight. The wells were washed 3 times with PBS and blocked with 100 μL of 1% BSA/PBS at 37° C. for 1 hour. Each antibody was adjusted to 1 μg/mL in 1% SBA/PBS as above then serially diluted 1:5 in 1% BSA/PBS. The blocker was discarded and the wells were incubated with 50 μL of antibodies at 37° C. for 1.5 hours. The wells were washed 3 times with PBS and mouse antibodies were detected with 50 μL of goat anti-mouse IgG (H+L) HRP conjugate (ThermoFisher 31438) (1:5,000 in 1% BSA/PBS) and rabbit antibodies were detected with 50 μL of goat anti-rabbit IgG (H+L) HRP conjugate (ThermoFisher 31462) (1:5,000 in 1% BSA/PBS) at 37° C. for 1 hour. The wells were washed 3 times with PBS and developed with 50 μL of HRP substrate at RT for 5 min then stopped with 50 μL of 2N sulfuric acid and binding was measured with a plate reader."}, "[6]": {"target": "T5, oligopeptide ATYPSGHLD (SEQ ID NO: 101)", "T5 construct": "Synthetic peptide, part of Loop C of AQP3", "T5 peptide": "ATYPSGHLD", "test": "ELISA on coated peptide", "procedure": "as §2, §3"}, "[7]": {"target": "T6, oligopeptide TAGIFATYPSGHLDM (SEQ ID NO: 105)", "T6 construct": "Synthetic peptide, part of Loop C of AQP3", "T6 peptide": "TAGIFATYPSGHLDM", "test": "ELISA on coated peptide", "procedure": "as §2, §3"}, "[8]": {"target": "T7, oligopeptide PSGHLDM (SEQ ID NO: 98)", "T7 construct": "Synthetic peptide, part of Loop C of AQP3", "T7 peptide": "PSGHLDM", "test": "ELISA on coated peptide", "procedure": "as §2, §3"}, "[9]": {"target": "T8, oligopeptide FATYPSGHLDM (SEQ ID NO: 109)", "T8 construct": "Synthetic peptide, part of Loop C of AQP3", "T8 peptide": "FATYPSGHLDM", "test": "ELISA on coated peptide", "procedure": "as §2, §3"}, "[10]": {"target": "T9, oligopeptide ATYPSGHL (SEQ ID NO: 102)", "T9 construct": "Synthetic peptide, part of Loop C of AQP3", "T9 peptide": "ATYPSGHL", "test": "ELISA on coated peptide", "procedure": "as §2, §3"}, "[11]": {"target": "T10, oligopeptide ATYPSGH (SEQ ID NO: 103)", "T10 construct": "Synthetic peptide, part of Loop C of AQP3", "T10 peptide": "ATYPSGH", "test": "ELISA on coated peptide", "procedure": "as §2, §3"}, "[12]": {"target": "T11, oligopeptide YPSGHLDM (SEQ ID NO: 97)", "T11 construct": "Synthetic peptide, part of Loop C of AQP3; first diluted in DMSO", "T11 peptide": "YPSGHLDM", "test": "ELISA on coated peptide", "procedure": "as §2, §3"}, "[13]": {"target": "T12, oligopeptide TYPSGHLDM (SEQ ID NO: 96)", "T12 construct": "Synthetic peptide, part of Loop C of AQP3", "T12 peptide": "TYPSGHLDM", "test": "ELISA on coated peptide", "procedure": "as §2, §3"}, "[14]": {"target": "T13, oligopeptide AGIFATYPSGHLDM (SEQ ID NO: 106)", "T13 construct": "Synthetic peptide, part of Loop C of AQP3", "T13 peptide": "AGIFATYPSGHLDM", "test": "ELISA on coated peptide", "procedure": "as §2, §3"}, "[15]": {"target": "T14, oligopeptide SGPNGTAGIFATYPS (SEQ ID NO: 94)", "T14 construct": "Synthetic peptide, part of Loop C of AQP3", "T14 peptide": "SGPNGTAGIFATYPS", "test": "ELISA on coated peptide", "procedure": "as §2, §3"}, "[16]": {"target": "T15, oligopeptide SGHLDM (SEQ ID NO: 99)", "T15 construct": "Synthetic peptide, part of Loop C of AQP3", "T15 peptide": "SGHLDM", "test": "ELISA on coated peptide", "procedure": "as §2, §3"}, "[17]": {"target": "T16, oligopeptide ATYPSG (SEQ ID NO: 104)", "T16 construct": "Synthetic peptide, part of Loop C of AQP3", "T16 peptide": "ATYPSG", "test": "ELISA on coated peptide", "procedure": "as §2, §3"}, "[18]": {"target": "T17, oligopeptide IFATYPSGHLDM (SEQ ID NO: 108)", "T17 construct": "Synthetic peptide, part of Loop C of AQP3", "T17 peptide": "IFATYPSGHLDM", "test": "ELISA on coated peptide", "procedure": "as §2, §3"}, "[19]": {"target": "T3, oligopeptide ATYPSGHLDM (SEQ ID NO: 1)", "test": "ELISA on coated peptide", "procedure": "as §2, §3"}, "[20]": {"target": "T18, oligopeptide GHLDM (SEQ ID NO: 100)", "T18 construct": "Synthetic peptide, part of Loop C of AQP3", "T18 peptide": "GHLDM", "test": "ELISA on coated peptide", "procedure": "as §2, §3"}, "[21]": {"target": "T19, human aquaporin 3 (AQP3) on cells (human, UniProt Q92482 1-292)", "T19 construct": "whole, on cells; Water channel membrane protein; also called human AQP3; AQP3 on HaCaT cells", "T19 sequence (looked up)": "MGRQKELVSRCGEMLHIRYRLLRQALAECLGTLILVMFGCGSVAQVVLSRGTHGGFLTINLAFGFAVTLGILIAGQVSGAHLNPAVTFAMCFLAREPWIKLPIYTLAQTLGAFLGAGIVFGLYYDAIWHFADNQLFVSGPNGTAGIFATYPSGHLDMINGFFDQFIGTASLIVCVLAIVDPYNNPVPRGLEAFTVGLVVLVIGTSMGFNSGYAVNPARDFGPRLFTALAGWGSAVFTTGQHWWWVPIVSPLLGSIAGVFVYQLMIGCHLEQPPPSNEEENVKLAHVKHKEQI", "test": "fluorescence binding assay on HaCaT cells, 10 µg/mL", "procedure": "as §1, with “HaCaT” for “PAM212”"}}, "note": "Values joined by “and” are separate entries in the source; they are usually repeats but may differ in a detail not shown here. Identical values can stand only once."}
{"binder": "BC-B10 (IgG) (antibody, V domains shown, also called anti AQP3 antibody BC-B10) VH: QSVEESGGRLVTPGAPLTLTCTVSRFSLSSYAMTWVRQAPGKGLEWIGIINNDVISSTWYASWVKGRFTISKTSTTMELKMTSLTTEDTATYFCARGGTSGYDIWGPGTLVTVSS VL: AIKMTQTPSPVSAAVGGTVTINCQSSPSVYKNYLSWYQQKPGQPPKLLIYGASTLASGVPSRFKGSGSGTQFTLTISDVQCDDAATYYCAGGYIGSRDIFSFGGGTEVVVK", "values": [{"measurement": "fold fluorescence intensity over no antibody", "setting": "[1]", "value": "≥ 2", "unit": "fold"}, {"measurement": "binding result", "setting": "[2]", "value": "no binding"}, {"measurement": "EC50", "setting": "[3]", "value": "0.01 µg/mL and ~0.06 nM"}, {"measurement": "fold decrease in fluorescence intensity on AQP3 siRNA cells against control siRNA cells", "setting": "[4]", "value": "~2", "unit": "fold"}, {"measurement": "binding signal (plate reader)", "setting": "[5]", "value": 3.88}, {"measurement": "binding signal (plate reader)", "setting": "[6]", "value": 3.96}, {"measurement": "binding signal (plate reader)", "setting": "[7]", "value": 3.99}, {"measurement": "binding signal (plate reader)", "setting": "[8]", "value": 3.72}, {"measurement": "binding signal (plate reader)", "setting": "[9]", "value": 3.92}, {"measurement": "binding signal (plate reader)", "setting": "[10]", "value": 4}, {"measurement": "binding signal (plate reader)", "setting": "[11]", "value": 3.91}, {"measurement": "binding signal (plate reader)", "setting": "[12]", "value": 3.96}, {"measurement": "binding signal (plate reader)", "setting": "[13]", "value": 3.96}, {"measurement": "binding signal (plate reader)", "setting": "[14]", "value": 3.9}, {"measurement": "binding signal (plate reader)", "setting": "[15]", "value": 3.76}, {"measurement": "binding signal (plate reader)", "setting": "[16]", "value": 0.405}, {"measurement": "binding signal (plate reader)", "setting": "[17]", "value": 3.54}, {"measurement": "binding signal (plate reader)", "setting": "[18]", "value": 3.88}, {"measurement": "binding signal (plate reader)", "setting": "[19]", "value": 3.98}, {"measurement": "binding signal (plate reader)", "setting": "[20]", "value": 0.123}, {"measurement": "fold fluorescence intensity over no antibody", "setting": "[21]", "value": "> 2", "unit": "fold"}]}
